In KR20190060702A (dated 2019):

Molecular target: T1, 사람 ICAM4 (intercellular adhesion molecule 4) (human, UniProt Q14773 31-271)
T1 construct: whole, on cells; Always on cells that carry it naturally; no recombinant ICAM4 was used; also called CD242; 1E1 항원
T1 sequence (looked up): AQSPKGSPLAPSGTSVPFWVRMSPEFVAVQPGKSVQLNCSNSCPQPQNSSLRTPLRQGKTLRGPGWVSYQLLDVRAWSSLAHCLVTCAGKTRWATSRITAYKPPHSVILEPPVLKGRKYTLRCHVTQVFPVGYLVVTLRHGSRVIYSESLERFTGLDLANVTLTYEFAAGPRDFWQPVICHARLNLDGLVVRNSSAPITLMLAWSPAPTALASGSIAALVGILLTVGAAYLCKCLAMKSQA
Test: binding affinity compared with the chimeric antibody (Fig. 5)

B1: 항-ICAM4 인간화항체 VH2A 및 VL2C의 조합 (antibody, V domains shown)
VH: QVQLVESGGGLVKPGGSLRLSCAVSGFSLTDYGVGWIRQAPGKGLEWLGVMWGGGRTYYNAPVKSRLTISKDNAKNSVYLQMNSLRAEDTAVYYCVKTGQDYAVDYWGQGTLVTVSS
VL: EIVLTQSPATLSLSPGERATLSCRASKSVSKYLAWYQEKPGQANRLLIYSGSTLQSGIPARFSGSGSGTDFTLTISSLEPEDFAVYYCQQHNVYPWTFGQGTKVEIK
notes: also called VH2A/VL2C
binding result: binds
